Measured values published in patent US20240287484.

Assays:
Details in all cases: qPCR; 3 mM MgCl2, 37 C
[1] = system: T1, MG153-17 RT (uncultivated organism (metagenomic))
T1 sequence: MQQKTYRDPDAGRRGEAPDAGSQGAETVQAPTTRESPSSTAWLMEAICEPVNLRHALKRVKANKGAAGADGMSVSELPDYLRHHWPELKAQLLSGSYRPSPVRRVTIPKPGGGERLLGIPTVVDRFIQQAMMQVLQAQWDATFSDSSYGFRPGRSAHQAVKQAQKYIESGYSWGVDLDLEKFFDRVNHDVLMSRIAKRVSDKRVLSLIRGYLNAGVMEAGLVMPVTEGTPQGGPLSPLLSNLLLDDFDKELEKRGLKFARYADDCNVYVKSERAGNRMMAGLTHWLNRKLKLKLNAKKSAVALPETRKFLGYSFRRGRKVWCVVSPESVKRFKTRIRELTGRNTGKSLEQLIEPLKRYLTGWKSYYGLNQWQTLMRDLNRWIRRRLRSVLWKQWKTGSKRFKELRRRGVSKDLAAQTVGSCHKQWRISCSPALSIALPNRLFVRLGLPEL

[2] = system: T2, MG153-25 RT (uncultivated organism (metagenomic))
T2 sequence: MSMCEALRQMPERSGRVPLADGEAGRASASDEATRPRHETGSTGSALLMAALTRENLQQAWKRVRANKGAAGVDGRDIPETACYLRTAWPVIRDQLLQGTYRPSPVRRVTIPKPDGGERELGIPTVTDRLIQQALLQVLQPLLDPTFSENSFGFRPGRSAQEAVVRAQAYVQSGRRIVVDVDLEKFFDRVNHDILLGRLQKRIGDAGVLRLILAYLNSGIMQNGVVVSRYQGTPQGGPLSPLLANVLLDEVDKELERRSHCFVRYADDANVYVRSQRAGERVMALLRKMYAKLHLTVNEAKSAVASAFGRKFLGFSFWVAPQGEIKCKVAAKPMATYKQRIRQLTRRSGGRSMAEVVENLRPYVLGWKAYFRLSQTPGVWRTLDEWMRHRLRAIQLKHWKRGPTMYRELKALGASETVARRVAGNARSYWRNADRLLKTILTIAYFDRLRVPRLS

[3] = system: T3, MG153-27 RT (uncultivated organism (metagenomic))
T3 sequence: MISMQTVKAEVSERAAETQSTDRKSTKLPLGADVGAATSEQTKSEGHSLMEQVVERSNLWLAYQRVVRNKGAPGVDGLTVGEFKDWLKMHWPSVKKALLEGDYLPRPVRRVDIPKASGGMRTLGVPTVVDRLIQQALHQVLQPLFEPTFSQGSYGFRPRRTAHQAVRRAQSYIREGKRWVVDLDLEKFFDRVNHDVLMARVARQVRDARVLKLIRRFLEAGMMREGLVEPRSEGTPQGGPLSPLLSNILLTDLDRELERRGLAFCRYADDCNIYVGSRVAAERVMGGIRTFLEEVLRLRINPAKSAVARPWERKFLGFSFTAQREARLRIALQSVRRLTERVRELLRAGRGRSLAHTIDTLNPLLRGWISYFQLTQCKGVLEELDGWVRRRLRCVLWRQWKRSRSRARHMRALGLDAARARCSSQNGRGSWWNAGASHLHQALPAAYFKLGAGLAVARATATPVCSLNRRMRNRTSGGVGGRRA

[4] = system: T4, MG153-32 RT (uncultivated organism (metagenomic))
T4 sequence: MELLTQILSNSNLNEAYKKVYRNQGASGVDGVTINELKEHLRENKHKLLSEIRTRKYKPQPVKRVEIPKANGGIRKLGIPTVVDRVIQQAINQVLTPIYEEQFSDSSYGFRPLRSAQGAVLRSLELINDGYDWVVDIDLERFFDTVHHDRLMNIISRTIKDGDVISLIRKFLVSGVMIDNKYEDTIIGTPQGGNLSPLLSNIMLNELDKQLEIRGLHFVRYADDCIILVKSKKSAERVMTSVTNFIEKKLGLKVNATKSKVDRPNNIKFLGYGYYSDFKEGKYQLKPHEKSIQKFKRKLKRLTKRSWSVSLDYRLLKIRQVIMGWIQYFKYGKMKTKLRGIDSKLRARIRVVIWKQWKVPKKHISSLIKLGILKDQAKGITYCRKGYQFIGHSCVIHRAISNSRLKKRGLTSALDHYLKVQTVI

[5] = system: T5, MG153-47 RT (uncultivated organism (metagenomic))
T5 sequence: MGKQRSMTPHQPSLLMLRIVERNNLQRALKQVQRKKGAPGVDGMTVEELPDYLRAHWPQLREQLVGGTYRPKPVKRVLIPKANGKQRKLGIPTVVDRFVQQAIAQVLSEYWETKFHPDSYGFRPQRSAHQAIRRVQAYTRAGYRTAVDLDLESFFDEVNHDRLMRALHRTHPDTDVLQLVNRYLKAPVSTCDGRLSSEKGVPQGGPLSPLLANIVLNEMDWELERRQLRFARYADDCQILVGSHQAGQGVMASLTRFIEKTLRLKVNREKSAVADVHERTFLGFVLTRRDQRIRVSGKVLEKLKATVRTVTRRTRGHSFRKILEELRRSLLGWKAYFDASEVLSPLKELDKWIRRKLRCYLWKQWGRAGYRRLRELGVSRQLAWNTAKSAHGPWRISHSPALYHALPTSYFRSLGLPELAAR

[6] = system: T6, MG153-7 RT (uncultivated organism (metagenomic))
T6 sequence: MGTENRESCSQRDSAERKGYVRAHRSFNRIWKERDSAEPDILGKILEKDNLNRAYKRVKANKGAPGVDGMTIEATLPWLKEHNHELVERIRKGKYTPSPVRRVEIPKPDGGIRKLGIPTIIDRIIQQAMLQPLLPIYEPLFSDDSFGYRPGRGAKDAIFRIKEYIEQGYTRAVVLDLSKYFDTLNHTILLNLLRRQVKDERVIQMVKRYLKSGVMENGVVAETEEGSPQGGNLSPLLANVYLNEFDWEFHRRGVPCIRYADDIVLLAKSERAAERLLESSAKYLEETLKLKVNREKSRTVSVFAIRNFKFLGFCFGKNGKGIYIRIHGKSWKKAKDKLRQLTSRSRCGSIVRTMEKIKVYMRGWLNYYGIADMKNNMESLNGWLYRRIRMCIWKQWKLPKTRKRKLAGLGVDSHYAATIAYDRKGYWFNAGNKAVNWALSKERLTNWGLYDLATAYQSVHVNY

Measured: activity (fold over background)

200 nt RNA template annealed to DNA primer
> 10: all assays above
